Measurements reported in IntAct's records for PubMed 29039417.

B1: BBSome complex member BBS2 (Homo sapiens), Q9BXC9 (parent)
chain: MLLPVFTLKLRHKISPRMVAIGRYDGTHPCLAAATQTGKVFIHNPHTRNQHVSASRVFQSPLESDVSLLSINQAVSCLTAGVLNPELGYDALLVGTQTNLLAYDVYNNSDLFYREVADGANAIVLGTLGDISSPLAIIGGNCALQGFNHEGSDLFWTVTGDNVNSLALCDFDGDGKKELLVGSEDFDIRVFKEDEIVAEMTETEIVTSLCPMYGSRFGYALSNGTVGVYDKTSRYWRIKSKNHAMSIHAFDLNSDGVNELITGWSNGKVDARSDRTGEVIFKDNFSSAIAGVVEGDYRMDGHIQLICCSVDGEIRGYLPGTAEMRGNLMDTSAEQDLIRELSQKKQNLLLELRNYEENAKAELASPLNEADGHRGIIPANTRLHTTLSVSLGNETQTAHTELRISTSNDTIIRAVLIFAEGIFTGESHVVHPSIHNLSSSICIPIVPPKDVPVDLHLKAFVGYRSSTQFHVFESTRQLPRFSMYALTSLDPASEPISYVNFTIAERAQRVVVWLGQNFLLPEDTHIQNAPFQVCFTSLRNGGHLHIKIKLSGEITINTDDIDLAGDIIQSMASFFAIEDLQVEADFPVYFEELRKVLVKVDEYHSVHQKLSADMADHSNLIRSLLVGAEDARLMRDMKTMKSRYMELYDLNRDLLNGYKIRCNNHTELLGNLKAVNQAIQRAGRLRVGKPKNQVITACRDAIRSNNINTLFKIMRVGTASS
partner: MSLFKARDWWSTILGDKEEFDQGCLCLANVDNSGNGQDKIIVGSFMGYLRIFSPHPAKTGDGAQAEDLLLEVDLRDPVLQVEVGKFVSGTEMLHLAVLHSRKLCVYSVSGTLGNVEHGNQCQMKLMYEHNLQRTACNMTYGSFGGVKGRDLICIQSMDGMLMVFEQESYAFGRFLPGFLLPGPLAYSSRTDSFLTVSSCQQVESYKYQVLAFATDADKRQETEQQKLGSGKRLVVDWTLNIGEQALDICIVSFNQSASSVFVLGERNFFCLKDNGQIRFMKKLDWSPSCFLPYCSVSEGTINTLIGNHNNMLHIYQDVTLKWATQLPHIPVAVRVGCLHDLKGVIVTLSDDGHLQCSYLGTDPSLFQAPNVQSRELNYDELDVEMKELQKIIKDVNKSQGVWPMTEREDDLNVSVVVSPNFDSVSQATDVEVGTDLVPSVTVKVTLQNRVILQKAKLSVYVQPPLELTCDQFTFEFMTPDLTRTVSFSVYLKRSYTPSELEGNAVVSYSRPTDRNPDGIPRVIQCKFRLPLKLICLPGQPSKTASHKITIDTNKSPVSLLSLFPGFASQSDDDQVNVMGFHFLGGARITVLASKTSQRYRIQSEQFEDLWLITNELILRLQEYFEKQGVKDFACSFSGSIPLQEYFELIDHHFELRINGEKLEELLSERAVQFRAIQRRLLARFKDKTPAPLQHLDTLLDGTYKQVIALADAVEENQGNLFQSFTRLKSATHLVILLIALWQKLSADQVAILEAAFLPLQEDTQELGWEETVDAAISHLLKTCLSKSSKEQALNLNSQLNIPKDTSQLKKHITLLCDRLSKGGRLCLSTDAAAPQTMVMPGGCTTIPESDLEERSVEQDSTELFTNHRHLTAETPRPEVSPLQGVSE
B2: BBSome complex member BBS4 (Homo sapiens), Q96RK4 (parent)
chain: MAEERVATRTQFPVSTESQKPRQKKAPEFPILEKQNWLIHLHYIRKDYEACKAVIKEQLQETQGLCEYAIYVQALIFRLEGNIQESLELFQTCAVLSPQSADNLKQVARSLFLLGKHKAAIEVYNEAAKLNQKDWEISHNLGVCYIYLKQFNKAQDQLHNALNLNRHDLTYIMLGKIHLLEGDLDKAIEVYKKAVEFSPENTELLTTLGLLYLQLGIYQKAFEHLGNALTYDPTNYKAILAAGSMMQTHGDFDVALTKYRVVACAVPESPPLWNNIGMCFFGKKKYVAAISCLKRANYLAPFDWKILYNLGLVHLTMQQYASAFHFLSAAINFQPKMGELYMLLAVALTNLEDIENAKRAYAEAVHLDKCNPLVNLNYAVLLYNQGEKKNALAQYQEMEKKVSLLKDNSSLEFDSEMVEMAQKLGAALQVGEALVWTKPVKDPKSKHQTTSTSKPASFQQPLGSNQALGQAMSSAAAYRTLPSGAGGTSQFTKPPSLPLEPEPAVESSPTETSEQIREK
partner: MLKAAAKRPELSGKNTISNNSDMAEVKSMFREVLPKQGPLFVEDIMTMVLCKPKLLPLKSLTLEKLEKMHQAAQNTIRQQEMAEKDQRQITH

Variants of: B1
Conditions: with pthb1_human BBS9, Q3SYG4

Row | effect of a mutation on the interaction | Variant
1 | with no effect | V716E
2 | with no effect | V716K
3 | with no effect | V716A
4 | with no effect | I702K
5 | with no effect | I702A
6 | with no effect | I702E
7 | with no effect | I713A
8 | with no effect | I713E
9 | with no effect | I713K
10 | with no effect | K712E
11 | with no effect | K712A
12 | with no effect | S721E
13 | with no effect | S721A
14 | with no effect | S721K
15 | with no effect | T718A
16 | with no effect | T718K
17 | with no effect | T718E
18 | with no effect | R715E
19 | with no effect | R715A
20 | with no effect | R715K

Row | effect of a mutation on the interaction | Variant
21 | with no effect | L710A
22 | with no effect | L710K
23 | with no effect | L710E
24 | with no effect | T709E
25 | with no effect | T709A
26 | with no effect | T709K
27 | with no effect | F711K
28 | with no effect | F711A
29 | with no effect | F711E
30 | with no effect | R703A
31 | with no effect | R703K
32 | with no effect | R703E
33 | with no effect | N705E
34 | with no effect | N705A
35 | with no effect | N705K
36 | with no effect | N706K
37 | with no effect | N706A
38 | with no effect | N706E
39 | with no effect | M714E
40 | with no effect | M714K

Row | effect of a mutation on the interaction | Variant
41 | with no effect | M714A
42 | with no effect | I707A
43 | with no effect | I707E
44 | with no effect | I707K
45 | with no effect | G717K
46 | with no effect | G717E
47 | with no effect | G717A
48 | with no effect | A719K
49 | with no effect | A719E
50 | with no effect | S704K
51 | with no effect | S704A
52 | with no effect | S704E
53 | with no effect | S720E
54 | with no effect | S720A
55 | with no effect | S720K
56 | with no effect | N708E
57 | with no effect | N708K
58 | with no effect | N708A

More lines, now with the values behind:

Row | Variant | effect of a mutation on the interaction
59 | C698E | with no effect
60 | C698K | with no effect
61 | C698A | with no effect
62 | A701E | with no effect
63 | A701K | with no effect
64 | I695E | with no effect
65 | I695K | with no effect
66 | I695A | with no effect
67 | K689A | with no effect
68 | K689E | with no effect
69 | P690A | with no effect
70 | P690E | with no effect
71 | P690K | with no effect
72 | R699K | with no effect
73 | R699E | with no effect
74 | R699A | with no effect
75 | D700E | with no effect
76 | D700K | with no effect

Row | Variant | effect of a mutation on the interaction
77 | D700A | with no effect
78 | G688E | with no effect
79 | A697K | with no effect
80 | A697E | with no effect
81 | N692A | with no effect
82 | N692K | with no effect
83 | N692E | with no effect
84 | K691E | with no effect
85 | K691A | with no effect
86 | Q693K | with no effect
87 | Q693E | with no effect
88 | Q693A | with no effect
89 | V694E | with no effect
90 | V694K | with no effect
91 | V694A | with no effect
92 | T696E | with no effect
93 | T696K | with no effect
94 | T696A | with no effect

Variants of: B2
Conditions: with bbip1_human BBIP1, A8MTZ0

Row | effect of a mutation on the interaction | Variant
95 | with no effect | E268A
96 | with no effect | E268K
97 | with no effect | S269A
98 | with no effect | S269K
99 | with no effect | S269E
100 | with no effect | K283A
101 | with no effect | K283E
102 | with no effect | P271E
103 | with no effect | P271A
104 | with no effect | P271K
105 | with no effect | W273K
106 | with no effect | W273A
107 | with no effect | W273E
108 | with no effect | A296E
109 | with no effect | A296K
110 | disrupting interaction strength | A296V
111 | with no effect | G282E
112 | with no effect | G282A
113 | with no effect | G282K
114 | with no effect | L272K
115 | with no effect | L272E
116 | with no effect | L272A

Row | effect of a mutation on the interaction | Variant
117 | with no effect | K285E
118 | with no effect | K285A
119 | disrupting interaction strength | F281S
120 | with no effect | F281A
121 | with no effect | F281K
122 | with no effect | F281E
123 | with no effect | L293K
124 | with no effect | L293A
125 | with no effect | L293E
126 | with no effect | I290E
127 | with no effect | I290K
128 | with no effect | I290A
129 | with no effect | K294A
130 | with no effect | K294E
131 | with no effect | G277A
132 | with no effect | G277E
133 | with no effect | G277K
134 | with no effect | N297A
135 | with no effect | N297K
136 | with no effect | N297E
137 | with no effect | P270A
138 | with no effect | P270E

Row | effect of a mutation on the interaction | Variant
139 | with no effect | P270K
140 | with no effect | F280A
141 | with no effect | F280K
142 | with no effect | F280E
143 | with no effect | C292A
144 | disrupting interaction strength | C292R
145 | with no effect | C292K
146 | with no effect | C292E
147 | with no effect | K284E
148 | with no effect | K284A
149 | with no effect | N274E
150 | with no effect | N274K
151 | with no effect | N274A
152 | with no effect | I276E
153 | with no effect | I276K
154 | with no effect | I276A
155 | with no effect | Y286E
156 | with no effect | Y286A
157 | with no effect | Y286K
158 | with no effect | R295K
159 | with no effect | R295E
160 | with no effect | R295A

Row | effect of a mutation on the interaction | Variant
161 | with no effect | A288K
162 | with no effect | A288E
163 | with no effect | A289K
164 | with no effect | A289E
165 | disrupting interaction strength | A289V
166 | with no effect | C279A
167 | with no effect | C279K
168 | with no effect | C279E
169 | disrupting interaction strength | M278L
170 | with no effect | M278E
171 | disrupting interaction strength | M278T
172 | with no effect | M278A
173 | with no effect | M278K
174 | with no effect | V287K
175 | with no effect | V287A
176 | with no effect | V287E
177 | with no effect | N275E
178 | with no effect | N275A
179 | with no effect | N275K
180 | with no effect | S291K
181 | with no effect | S291A
182 | with no effect | S291E

Variants of: B2
Conditions: with bbip1_human BBIP1, A8MTZ0
Remark: another data set of the same source

Row | effect of a mutation on the interaction | Variant
183 | disrupting interaction strength | L327P
184 | disrupting interaction strength | N377Y
